Measured values from the supplement of paper PMC9170038.

Test system: MS2 coat protein
Assay: apparent KD of MS2 coat protein; designed switch direction (-1 OFF switch, 1 ON switch): -1; higher = weaker reporter binding
Method in brief: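 Designed RNA switches with common flanks were made on Illumina chips by stalled E. coli RNA polymerase. Titration with SNAP-549-labelled MS2 coat protein doubled from 0.7 or 1.5 nM up to 3 µM. Apparent KD is each design's median over clusters after curve-fitting normalised fluorescence.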

[1] = input ligand: microRNA oligo, concentration not stated
[2] = Eterna round: R95, input ligand: FMN 200 uM
[3] = Eterna round: R95, input ligand: microRNA oligo, concentration not stated
[4] = Eterna round: R95, input ligand: none

Sequence	apparent KD of MS2 coat protein (input ligand: FMN 200 uM)	apparent KD of MS2 coat protein (input ligand: none)	apparent KD of MS2 coat protein [1]	apparent KD of MS2 coat protein [2]	apparent KD of MS2 coat protein [3]	apparent KD of MS2 coat protein [4]
AUCGAGAUAGGAUAUGCCCAAGUAAACAUGAGGAUCACCCAUGUGGGUCACCUCUUCACGGUAGAAGGGUUAGAUU [Eternabot (L1) Solution 90] (Eterna round: R97, puzzle: Exclusion 5)	62 nM	81.8 nM	–	–	–	–
AUCGUACAGCAAAGCUGUACGAGUACAUGAGGAUCACCCAUGUAGGAUAUGGUACGCAAAGCGUGCUAGAAGGAUAUGAGAUUU [Mat - Exclusion NG 3 - Mod of JL - D101] (Eterna round: R96, puzzle: Exclusion NG 3)	48.5 nM	48.7 nM	30.4 nM	–	–	–
AUCGUGUUAGGAUAUACACGACGCUGGGUAGCGGGCGGAGGGUAGAAGGGACAUGAGGAUCACCCAUGUUCGGG [Somalaesar] (Eterna round: R97, puzzle: Exclusion 4)	41.2 nM	46.6 nM	–	–	–	–
AUCUGCACGCUGCGGUCCUACAUGAGGAUCACCCAUGUGGUCUGGUGGCGUGGGUCACCGGACUUGGCUCGUCUUGC [salish99_S_TOV1_R5_054] (Eterna round: R97, puzzle: Sensor, turn-off variant 1)	19.8 nM	19.6 nM	–	–	–	–
AUCUUGUCAGGAUAUCUUACAUAACAAUCGUAGUUACCAUUGGAGAAGGGACAUGAGGAUCACCCAUGUUAGCC [tap-tap-tappy42] (Eterna round: R97, puzzle: Exclusion 4)	20.8 nM	19.8 nM	–	–	–	–
AUGAACAAGCUUUUUGCAAACAUGAGGAUCACCCAUGUCUUAUAUCGUACCAUGCUAGGCCCUAGCAUGGUACGAUU [jl sellena mod 2] (Eterna round: R97, puzzle: Sensor, turn-off variant 1)	17.6 nM	14.6 nM	–	–	–	–
AUGAAGUAAGGAUAUACAUGAGGAUCACCCAUGUAAAGAAAAGUAAUGGGAGUAAGAAGUAGAAGGUACGAGAA [JR_Exclu3_Sub061] (puzzle: Exclusion 3)	–	–	–	53.4 nM	48.2 nM	54.1 nM
AUGAGCAGACGGAGAUCCAACAUGAGGAUCACCCAUGUCUCAAAAGCUUUUUGCUCAUCUUAUUGUACCUUGGUGCA [Mat - Sensor v3 - turn-off var 1 - JL Mod - D17] (puzzle: Sensor v3, turn-off variant 1)	–	–	–	172 nM	16.5 nM	213 nM
AUGAGCAGACGGAGAUCCAACAUGAGGAUCACCCAUGUCUCAUAAGCUUUUUGCUCAUCUUAUUGUACCUUGGUGCU [Mat - Sensor v3 - turn-off var 1 - JL Mod - D19] (puzzle: Sensor v3, turn-off variant 1)	–	–	–	191 nM	11.5 nM	251 nM
AUGAGGUUAGGAUAUACAUGAGGAUCACCCAUGUUGGAGAAGGAAAUGUAAGUAGCGAGUAGAAGGAACGGAGC [JR_Exclu3_Sub059] (Eterna round: R96, puzzle: Exclusion 3)	48.6 nM	49 nM	40.4 nM	–	–	–
AUGAGGUUAGGAUAUACAUGAGGAUCACCCAUGUUGGAGAAGGAAAUGUAAGUAGCGAGUAGAAGGAACGGAGC [JR_Exclu3_Sub059] (puzzle: Exclusion 3)	–	–	–	–	44.1 nM	–
AUGAUACAUGAGGAUCACCCAUGUUAGGAUAUACGCAUGCAUGCAUGCAUGCAUGCAAGUAGAAGGAACCAUGC [Design #2] (Eterna round: R97, puzzle: Exclusion 1)	56.8 nM	48.2 nM	–	–	–	–
AUGCUCCGUGUAGGAUAUCGCCGCACCACUCGGCGAGAAGGACAUGAGGAUCACCCAUGUAUGUUAUUAUCACGUGUGGCGCGC [Design 43] (Eterna round: R96, puzzle: Exclusion NG 1)	15.1 nM	15.9 nM	13 nM	–	–	–
AUGGGACAUGAGGAUCACCCAUGUCAGGAUAUGCUCUGAUGCGGCGUACGCCGUGCUAGCAGAAGGGACUACCU [EX1 C.19] (Eterna round: R97, puzzle: Exclusion 1)	29 nM	28 nM	–	–	–	–
AUGGGUCCUCACGGAGCUACAUGAGGAUCACCCAUGUGGAUUGAGGAUAUCGACAGCCGACGGCUCGAGAAGGCAGUUUACUGU [Ex NG3 #96] (Eterna round: R96, puzzle: Exclusion NG 3)	35 nM	26.4 nM	23.2 nM	–	–	–
AUGGGUCGGGAGGAUAUUCGGGCUCAUGGGCUUGGAGAAGGCUCGACAUGAGGAUCACCCAUGUAAGUGUUCUU [-25, -23.1 kcal, A 22%] (Eterna round: R97, puzzle: Exclusion 6)	550 nM	32.2 nM	–	–	–	–
AUGGUCCGAGGAUAUAUUAUGUGAUACAUGAGGAUCACCCAUGUUAUAUGAUGGAUGUUAGUAGAAGGCGGACUAC [salish99_ex5_r3_002] (puzzle: Exclusion 5)	–	–	–	89.3 nM	82.2 nM	103 nM

Sequence	apparent KD of MS2 coat protein (input ligand: FMN 200 uM)	apparent KD of MS2 coat protein (input ligand: none)	apparent KD of MS2 coat protein [1]	apparent KD of MS2 coat protein [2]	apparent KD of MS2 coat protein [3]	apparent KD of MS2 coat protein [4]
AUGGUUCGGUCAGGAUAUCGUAGAUUGAAUAGUAUGAUUUACAUGAGGAUCACCCAUGUUACAUACGAGAAGGGACCGAAUCAU [JR_ExcNG2_Sub024] (Eterna round: R96, puzzle: Exclusion NG 2)	–	–	10.4 nM	–	–	–
AUGUACCGGUGAGGAUAUUUAUAAUAGAGCUUUAUGAUAUACAUGAGGAUCACCCAUGUUACUUUAAAGAAGGCAUCGGAUUAA [Mat - Exclusion NG 2 - Mod of JL - D91] (Eterna round: R96, puzzle: Exclusion NG 2)	15.3 nM	21.2 nM	15.3 nM	–	–	–
AUGUGACAUGAGGAUCACCCAUGUCAGGAUAUUUCCAAAAUAAAAUAAAACCGCGUGGAAAGAAGGGACGUGGC [EX1 A.4] (Eterna round: R97, puzzle: Exclusion 1)	27.4 nM	21.9 nM	–	–	–	–
AUGUGCACGCUGCGGUCCUACAUGAGGAUCACCCAUGUGGUCUGGUGGCGUGGGUCACCGGACUUGGCUCGUCUUGA [salish99_S_TOV1_R5_055] (Eterna round: R97, puzzle: Sensor, turn-off variant 1)	56 nM	51.9 nM	–	–	–	–
AUGUGCACGCUGCGGUCCUACAUGAGGAUCACCCAUGUGGUCUGGUGGCGUGGGUCACCGGACUUGGCUCGUCUUGU [salish99_S_TOV1_R5_056] (Eterna round: R97, puzzle: Sensor, turn-off variant 1)	33.7 nM	40.1 nM	–	–	–	–
AUGUGCACGCUGCGGUCCUACAUGAGGAUCACCCAUGUGGUCUGGUGGCGUGGGUCGCCGGACUUGGCUCGUCUUGG [salish99_S_TOV1_R5_031] (Eterna round: R97, puzzle: Sensor, turn-off variant 1)	15.6 nM	15.9 nM	–	–	–	–
AUGUGCUGCUAAGGAUAUGUGAACUGUUUCCGAAUAGAAGGUAGCUAUACAUGAGGAUCACCCAUGUACGUGAACCGAGUAAAA [Eternabot solution 20] (Eterna round: R96, puzzle: Exclusion NG 1)	20 nM	24.6 nM	19 nM	–	–	–
AUGUUGCGAGGAUAUAUAAGGGUAUAUUAAUAAGAUAUGGAACAUGAGGAUCACCCAUGUAGAAGGUGCAUAAC [JR_Ex2_Sub041] (Eterna round: R97, puzzle: Exclusion 2)	45.6 nM	33.6 nM	–	–	–	–
AUGUUGCGAGGAUAUAUAAGGGUAUAUUCAUAAGAUAUGGAACAUGAGGAUCACCCAUGUAGAAGGUGCAUAAC [JR_Ex2_Sub042] (Eterna round: R97, puzzle: Exclusion 2)	200 nM	46.2 nM	–	–	–	–
AUGUUUGUAGUGAGGAUAUCGUUGAGGAAGAGGAUCGAGAAGGCACAUGAGGAUCACCCAUGUAAGAUGUGGUA [JR_BMOE4_Sub081] (puzzle: Brourd's mod of Exclusion 4)	–	–	–	69.9 nM	61.2 nM	55.5 nM
AUUAAACGUGUAGGAUAUGCGUGGCGAAGCUAUGCAGAAGGACAUGAGGAUCACCCAUGUUCUAGCGUCUGCGUACAGAUGCUA [JL eng1 1.35 mod 5] (Eterna round: R96, puzzle: Exclusion NG 1)	25.1 nM	16.3 nM	11.4 nM	–	–	–
AUUAAAUAAGGAUAUACAUGAGGAUCACCCAUGUGUAGCAAGGUGUUGCGAUCCGCAAGUAGAAGGUGUAUAAU [Eternabot (L2) Solution 2] (Eterna round: R97, puzzle: Exclusion 3)	49.6 nM	32 nM	–	–	–	–
AUUAAUGUCAAAGGAUAUCAGCACGUUUAGUGCUGAGAAGGUUGAACAUGAGGAUCACCCAUGUAGAUCAUUAAUAAUUUAAUU [ENG1/10-B1] (Eterna round: R96, puzzle: Exclusion NG 1)	23.5 nM	18.2 nM	18.9 nM	–	–	–
AUUAAUUGUCAGAUGGGUGACAUGAGGAUCACCCAUGUCACAAGCUUUUUGCUCGUCUUAUAAUUAACCCAUCUGAC [Stov1/11-A2] (Eterna round: R97, puzzle: Sensor, turn-off variant 1)	14.1 nM	13.3 nM	–	–	–	–
AUUACUAACACGAAAGUGUUAGUACAAUAAGCUUGUGAAACAUGAGGAUCACCCAUGUCCUCAUAAGCUCGUCUUAA [salish99_TOv2_r3_010] (puzzle: Sensor v3, turn-off variant 2)	–	–	–	14 nM	217 nM	11.9 nM
AUUAGAUGAGGAUAUACAUGGUUGCGGGUGCGGCAGGAUCUACAUGAGGAUCACCCAUGUAGAAGGCAUGUAUC [EX2 C.22] (Eterna round: R97, puzzle: Exclusion 2)	16.3 nM	13.8 nM	–	–	–	–
